doi:10.1101/2020.12.28.424526 (bioRxiv, 2020)

B1: recombinant NOL-58 (natural protein, C. elegans, UniProt O45012 1-487, looked up)
chain: MLVLFEVAAGYAVFKLSNEKKLKNVDNIWEEFSTAEKAQENLQLVSFKKFKTTAGAVEATSEITEGKLSKTLKKLLKSSVDETEKLAVGDAKLGNLIKEKLSLNCVHDSSINELMRGVRAHIEDLLAEHKEEMNAMNLAVAHSLARYKVKFNPEKIDTMIVQAVSLLDDLDKELNNYVMRVREWYGWHFPELGKTIQDHQAYAKIIKAIGMRQNCINTDLSSILPEELEEKVKEDAEISMGTDISDIDLIHIKGLCDQVIELSAYRAQLFDYLKNRMTALAPNLTVLLGELVGARLISHAGSLVSLAKAPASTIQILGAEKALFRALKTKKDTPKYGLIYHAQLITQAPPKVKGKMARKLAAKCSLATRIDALSDESATNEIGIECRAALENVLRTESERGPSKNKSFGSHRHDKYEFKSETYEYDASADTPASRKHKRFDDNEESTNAIKKMKIEEVKEEDEAEPEKKKKKKEKKAKKADTDSDEE
B2: partner of XRN two-1 (PAXT-1) (natural protein, C. elegans (endogenous in worm lysate), UniProt Q21738 1-335, looked up)
chain: MGKLEDVEAEKKLWESDDAWELRKAFMLAHYDDYPKIQLQCLSQLFINVTLLGCEYSQTLMQKIRTMGAGIAANKDRTKTGSYVKASAAKKRQAVKTSDLEGASDESKKVKMEKSPSPVARESFDERLGKLKASLAMTPHHLTGEQMMKTATNSCLMKWHVNKINQKIEITIDRYVAFRHTFSQYCVDPRDCAINTLIESILSCDAAVHEESYEIRFDGVPVDECYAKSVTRRLAKIKSAVSNGAHTVKGLTTYLDAVNMSMIQNTQKLEGWSQQLDLVTADLLLSSRVLSSTECTKPAMATIANQMSEDVCQLILNDKINVINSMKSHSSLAFQ
B3: recombinant PAXT-1 (natural protein, C. elegans, UniProt Q21738 1-335, looked up)
chain: MGKLEDVEAEKKLWESDDAWELRKAFMLAHYDDYPKIQLQCLSQLFINVTLLGCEYSQTLMQKIRTMGAGIAANKDRTKTGSYVKASAAKKRQAVKTSDLEGASDESKKVKMEKSPSPVARESFDERLGKLKASLAMTPHHLTGEQMMKTATNSCLMKWHVNKINQKIEITIDRYVAFRHTFSQYCVDPRDCAINTLIESILSCDAAVHEESYEIRFDGVPVDECYAKSVTRRLAKIKSAVSNGAHTVKGLTTYLDAVNMSMIQNTQKLEGWSQQLDLVTADLLLSSRVLSSTECTKPAMATIANQMSEDVCQLILNDKINVINSMKSHSSLAFQ
B4: recombinant miRNasome-1.4 (natural protein, C. elegans, UniProt Q17426 1-577, looked up)
chain: METEFGLTEYASEHTITPVPCLLKEMYSDFIVQEILADHTVLAIPSPDVVLESTGSKKEDIEIEECVAKPDCISEETLAALNDRFSTKGDPVLVKVDDLSKEDRKSIHHFIRERYAGVLITETKEDGILVSHGHTKSSRKRKLWDEKVPKECHFTICKENKETSFACQLIAKFLNVGPNNIRTHGIKDKRAVTSQRVSVTKVHERTILDLNSKLRGIRVFGCEYKDDPVQMGAHWGNRFSIVLRSLPDDSEQLLHQRLETFQNTGFINYFGTQRFGSRSSTTAEIGLAIVKRDWEKAVKMIMTNAMPDHLGYGSVGYAAKCFSQTGDARKAFSKLKGAQAFATVEGNILKCLSKGGTWQNCITEAIPIQSRSLYVHAYQSLIWNKVASRRVKEYGTRVHESDVGANGFSLGEHATHYDIHIPLPGENLPFEGSYGAKWISELLEEDGLTQSSFTALKDRFSLGESSRCLFVEAKELKWKFIRYGNARDLLQDGLQTRAIPEAEQKGPLLALQIQFSLISGSYATVALREVTGSDMGKKAMRDASFKTRGDDEKTEENVLEEKGSDDANELNLVSEDQ

Key:
[1] = target: 5'-3' exoribonuclease-2 (XRN-2) (C. elegans (endogenous in worm lysate)) (UniProt Q9U299); experiment: SDS-PAGE of the RNA-affinity purified complex
[2] = target: T1, recombinant XRN-2 (C. elegans, UniProt Q9U299 1-975)
T1 sequence (looked up): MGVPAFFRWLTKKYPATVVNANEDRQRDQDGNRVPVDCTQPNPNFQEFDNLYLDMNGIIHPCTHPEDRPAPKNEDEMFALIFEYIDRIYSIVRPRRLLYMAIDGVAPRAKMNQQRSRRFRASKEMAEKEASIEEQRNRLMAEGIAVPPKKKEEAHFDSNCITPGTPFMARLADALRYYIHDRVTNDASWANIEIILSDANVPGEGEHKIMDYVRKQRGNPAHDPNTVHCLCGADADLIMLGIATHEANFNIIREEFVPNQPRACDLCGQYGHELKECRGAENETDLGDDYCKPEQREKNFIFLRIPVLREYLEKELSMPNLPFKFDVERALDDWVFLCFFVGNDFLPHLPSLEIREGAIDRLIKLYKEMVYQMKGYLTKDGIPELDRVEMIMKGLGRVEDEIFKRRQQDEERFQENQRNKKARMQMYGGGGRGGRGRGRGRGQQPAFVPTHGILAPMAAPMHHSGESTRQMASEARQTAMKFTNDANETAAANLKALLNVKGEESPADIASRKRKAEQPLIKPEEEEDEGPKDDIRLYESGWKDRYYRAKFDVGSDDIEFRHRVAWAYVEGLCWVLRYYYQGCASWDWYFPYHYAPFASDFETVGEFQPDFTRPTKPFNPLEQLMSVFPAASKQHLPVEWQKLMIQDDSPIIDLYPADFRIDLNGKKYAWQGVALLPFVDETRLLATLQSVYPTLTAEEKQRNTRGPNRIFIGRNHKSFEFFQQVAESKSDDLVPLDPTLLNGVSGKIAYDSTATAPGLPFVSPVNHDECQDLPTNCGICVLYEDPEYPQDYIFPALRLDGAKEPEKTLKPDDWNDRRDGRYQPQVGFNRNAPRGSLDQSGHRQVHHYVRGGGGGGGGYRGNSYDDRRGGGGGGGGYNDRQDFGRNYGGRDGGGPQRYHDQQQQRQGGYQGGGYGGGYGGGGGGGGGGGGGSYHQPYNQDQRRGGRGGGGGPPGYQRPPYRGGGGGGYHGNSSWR

[3] = target: T2, 5'-3' exoribonuclease-2 (XRN-2) (C. elegans (endogenous in worm lysate), UniProt Q9U299 1-975); experiment: SDS-PAGE of the RNA-affinity purified complex
T2 sequence (looked up): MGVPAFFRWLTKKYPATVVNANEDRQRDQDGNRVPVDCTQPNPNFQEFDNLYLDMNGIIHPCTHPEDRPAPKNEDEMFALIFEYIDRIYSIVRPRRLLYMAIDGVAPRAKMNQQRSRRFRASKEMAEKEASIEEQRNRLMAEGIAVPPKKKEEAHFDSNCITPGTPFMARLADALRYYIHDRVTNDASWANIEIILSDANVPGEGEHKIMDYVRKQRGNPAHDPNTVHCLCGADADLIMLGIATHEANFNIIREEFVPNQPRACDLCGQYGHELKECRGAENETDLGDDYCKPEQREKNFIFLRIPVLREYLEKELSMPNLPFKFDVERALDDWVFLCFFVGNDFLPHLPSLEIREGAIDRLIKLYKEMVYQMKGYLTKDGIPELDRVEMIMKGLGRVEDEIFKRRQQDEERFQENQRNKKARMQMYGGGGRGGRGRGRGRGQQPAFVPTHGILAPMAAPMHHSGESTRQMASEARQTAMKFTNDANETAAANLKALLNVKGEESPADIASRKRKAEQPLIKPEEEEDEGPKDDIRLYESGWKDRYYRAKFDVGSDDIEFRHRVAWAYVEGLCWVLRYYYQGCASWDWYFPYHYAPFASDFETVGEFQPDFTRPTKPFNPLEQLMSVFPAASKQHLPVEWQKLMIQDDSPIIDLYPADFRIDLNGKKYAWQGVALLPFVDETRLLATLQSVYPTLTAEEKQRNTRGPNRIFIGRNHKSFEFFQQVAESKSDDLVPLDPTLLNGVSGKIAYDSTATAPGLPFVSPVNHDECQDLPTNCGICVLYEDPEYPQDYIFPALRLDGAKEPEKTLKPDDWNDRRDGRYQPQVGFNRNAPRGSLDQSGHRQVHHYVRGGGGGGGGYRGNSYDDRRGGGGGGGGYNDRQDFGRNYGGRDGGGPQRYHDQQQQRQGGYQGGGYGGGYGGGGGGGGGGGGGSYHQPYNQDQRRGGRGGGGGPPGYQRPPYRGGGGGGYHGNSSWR

Molecule	stoichiometry N [1]	stoichiometry N [2]	also measured
miRNasome-1.4 (B0024.11) (natural protein)	1	–	–
NOL-58 (natural protein)	1	–	–
B1	–	1	–
B2	–	–	stoichiometry N [3]: 1
B3	–	1	–
B4	–	1	–
